In patent US20240368668A1, “SUBSTRATES AND BIOMARKERS OF ADAMTS7” (The Broad Institute, Inc., priority 2021, published 2024):
Square brackets hold non-standard residues; d marks the D form. Ends that are not written are not given here.

Target: T1, mouse ADAMTS7 (Mus musculus, UniProt Q68SA9)
T1 construct: Full-length mouse Adamts7 1-1857 (Uniprot Q68SA9, WT or E373Q catalytic mutant); expressed in transfected cells; host or cells: Human Coronary Artery Smooth Muscle Cells (HCA-SMC, Lonza), adenovirus 50 MOI
T1 sequence (Q68SA9 221-1657): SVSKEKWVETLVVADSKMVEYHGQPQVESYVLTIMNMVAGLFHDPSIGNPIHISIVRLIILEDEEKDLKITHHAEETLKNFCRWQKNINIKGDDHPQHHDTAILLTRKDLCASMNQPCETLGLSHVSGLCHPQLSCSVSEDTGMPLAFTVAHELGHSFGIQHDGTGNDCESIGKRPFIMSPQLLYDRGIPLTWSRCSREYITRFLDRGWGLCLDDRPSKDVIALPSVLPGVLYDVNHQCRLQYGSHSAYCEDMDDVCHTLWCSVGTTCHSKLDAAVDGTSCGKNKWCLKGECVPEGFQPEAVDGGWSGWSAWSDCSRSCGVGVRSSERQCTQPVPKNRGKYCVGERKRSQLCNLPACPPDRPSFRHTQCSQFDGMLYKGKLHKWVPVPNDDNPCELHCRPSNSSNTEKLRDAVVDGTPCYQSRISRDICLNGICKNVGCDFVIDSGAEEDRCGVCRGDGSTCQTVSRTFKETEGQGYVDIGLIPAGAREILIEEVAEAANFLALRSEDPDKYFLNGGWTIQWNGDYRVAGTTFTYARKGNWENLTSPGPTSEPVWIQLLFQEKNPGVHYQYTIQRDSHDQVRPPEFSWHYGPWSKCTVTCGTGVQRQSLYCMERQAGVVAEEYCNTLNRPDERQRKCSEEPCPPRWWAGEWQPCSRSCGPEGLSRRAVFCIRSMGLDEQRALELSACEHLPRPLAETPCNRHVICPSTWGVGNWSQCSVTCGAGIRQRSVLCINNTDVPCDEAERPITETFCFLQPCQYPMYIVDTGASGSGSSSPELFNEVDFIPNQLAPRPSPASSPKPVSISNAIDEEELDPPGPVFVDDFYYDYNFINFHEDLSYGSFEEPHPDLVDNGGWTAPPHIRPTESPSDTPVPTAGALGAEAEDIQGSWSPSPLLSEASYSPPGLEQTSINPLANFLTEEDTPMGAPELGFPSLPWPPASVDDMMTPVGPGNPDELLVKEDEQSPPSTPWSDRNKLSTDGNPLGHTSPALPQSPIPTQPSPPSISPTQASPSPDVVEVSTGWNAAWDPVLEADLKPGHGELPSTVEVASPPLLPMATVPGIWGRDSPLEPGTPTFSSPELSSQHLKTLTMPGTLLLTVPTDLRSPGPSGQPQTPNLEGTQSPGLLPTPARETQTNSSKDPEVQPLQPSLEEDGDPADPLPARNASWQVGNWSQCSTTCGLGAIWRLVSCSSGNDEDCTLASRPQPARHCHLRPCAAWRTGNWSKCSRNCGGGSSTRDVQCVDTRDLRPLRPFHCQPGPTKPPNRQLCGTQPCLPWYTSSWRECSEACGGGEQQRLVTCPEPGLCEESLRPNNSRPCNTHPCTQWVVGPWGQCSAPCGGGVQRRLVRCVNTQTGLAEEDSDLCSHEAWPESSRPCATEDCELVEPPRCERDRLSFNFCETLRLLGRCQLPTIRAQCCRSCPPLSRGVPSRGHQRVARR
Experiment: TMT10 TAILS N-terminomics, HUVEC experiment (process replicates, trypsin/AspN digest)
Format: cell-based, human
Conditions: HUVEC TAILS HC; log fold change of N-terminal peptide, Ad-mADAMTS7 WT over Luc
Summary of the method: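 Full-length mouse ADAMTS7 (WT or E373Q mutant, C-terminal 3xFLAG) or luciferase was transduced via adenovirus, 50 MOI, into HCA-SMC (SMC1, SMC2) or HUVEC. SMC1: pooled media, technical triplicates 400 ug; SMC2: process triplicates 300 ug; HUVEC: process triplicates 200 ug, bFGF2 10 ng/ml.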

| Substance | logFC.mWT.over.Luc |
| --- | --- |
| ECM1_108 (QEAVPLQK; listed as Homo sapiens) | 2.21 |
| EFEMP1_125_ (VAGPEMQTGR; listed as Homo sapiens) | 2.34 |
| ERAP2_718 (ISENLKR; listed as Homo sapiens) | 5.05 |
| EWSR1_87 (YSQPVQGYGTGAY; listed as Homo sapiens) | 1.10 |
| FN1_34 ([code q]QMVQPQSPVAVSQSKPGCY; not fully specified (residue 3); listed as Homo sapiens) | 1.37 |
| FN1_35 ([code q]MVQPQSPVAVSQSKPGCY; not fully specified (residue 2); listed as Homo sapiens) | 2.31 |
| FN1_293 (VYQPQPHPQPPPYGHCVT; listed as Homo sapiens) | 0.96 |
| FN1_607 (SSSGPVEVFIT; listed as Homo sapiens) | 2.31 |
| FN1_1144 (TPGVEYVYTIQVLR; listed as Homo sapiens) | 1.43 |
| FN1_1780 (LQGLRPGSEYTVSVVALH; listed as Homo sapiens) | 1.80 |
| FN1_1805 (LIGTQSTAIPAPT; listed as Homo sapiens) | 1.47 |
| FN1_2113 (FVTHPGY; listed as Homo sapiens) | 1.05 |
| FSTL1_290 (LQKHQETA; listed as Homo sapiens) | 2.34 |
| LOX_125 (FQAGYSTSR; listed as Homo sapiens) | 3.82 |
